Results published in paper PMC5624926 (Nature Communications, 2017).

Key:
Settings in all cases: both partners purified
CD22_(20–687)F N231Q = target: T1, CD22_(20–687)F N231Q (human, UniProt P20273, N231Q, N-linked glycans with mature carbohydrates (HEK293F); glycosylation site N231 knocked out); assay: BLI; Octet RED96; CD22_(20–687) forms loaded on Ni-NTA biosensors; Fab in solution 500 to 62.5 nM; 1x PBS pH 7.4, 0.002% Tween, 0.01% BSA; 1:1 fit; triplicate
T1 construct: also called CD22 N231Q mutant; source: HEK293F, transiently transfected, secreted, purified (Ni-NTA, Superdex 200); not shown: His6, C-terminal, kept

CD22_(20–687)S = target: T2, CD22_(20–687)S (human, UniProt P20273, N-linked glycans of high mannose type (HEK293S)); assay: as above
T2 construct: differs in the glycoform; also called full-length CD22 ECD made in HEK293S (HEK293 Gnt I−/−); source: HEK293 Gnt I−/− (HEK293S), transiently transfected, secreted, purified (Ni-NTA, Superdex 200); not shown: His6, C-terminal, kept

CD22_(20–687) = target: T3, CD22_(20–687) (human, UniProt P20273, N-linked glycans; glycoform not stated); assay: negative-stain electron microscopy; CD22_(20–687) in complex with epratuzumab Fab, 2% uranyl formate stain; 2D class averages and ab initio 3D envelope
T3 construct: also called full-length CD22 ECD; not shown: His6, C-terminal, kept

fold improvement in affinity against WT CD22 (CD22_(20–687)F N231Q): 6 fold
fold increase in on-rate against WT CD22 (CD22_(20–687)F N231Q): 25 fold
binding result (CD22_(20–687)S): binds
binding result (CD22_(20–687)): binds
B1: epratuzumab Fab (Fab, V domains shown)
VH: QVQLVQSGAEVKKPGSSVKVSCKASGYTFTSYWLHWVRQAPGQGLEWIGYINPRNDYTEYNQNFKDKATITADESTNTAYMELSSLRSEDTAFYFCARRDITTFYWGQGTTVTVSS
VL: DIQLTQSPSSLSASVGDRVTMSCKSSQSVLYSANHKNYLAWYQQKPGKAPKLLIYWASTRESGVPSRFSGSGSGTDFTLTISSLQPEDIATYYCHQYLSSWTFGGGTKLEIK
notes: heavy chain of the epratuzumab Fab, gene synthesized by GeneArt; PDB 5VL3, complex with CD22; light chain of the epratuzumab Fab, gene synthesized by GeneArt; Therapeutic anti-CD22 antibody, used as Fab; purified on KappaSelect, so the light chain should be kappa (surmised); source: HEK293F, heavy and light chain co-transfected, purified (KappaSelect, MonoS, Superdex 200)
